Laboratory results reported in the supplement of paper PMC7877785.
± gives the uncertainty stated by the source.

Assay: self-splicing fitness, log relative to wild type (ln ratio); higher = more splicing; Tetrahymena group I intron in knt gene, E. coli kanamycin selection, DiMSum; sequences stand for … in CUCUCU…GGAGGGAAAAGUUAUCAGGCAUGCACCUGGUAGCUAGUCUUUAAACCAAUAGAUUGCAUCGGUUUAAAAGGCAAGACCGUCAAAUUGCGGGAAAGGGGUCAACAGCCGUUCAGUACCAAGUCUCAGGGGAAACUUUGAGAUGGCCUUGCAAAGGGUAUGGUAAUAAGCUGACGGACAUGGUCCUAACCACGCAGCCAAGUCCUAAGUCAACAGAUCUUCUGUUGAUAUGGAUGCAGUUCACAGACUAAAUGUCGGUCGGGGAAGAUGUAUUCUUCUCAUAAGAUAUAGUCGGACCUCUCCUUAAUGGGAGCUAGCGGAUGAAGUGAUGCAACACUGGAGCCGCUGGGAACUAAUUUGUAUGCGAAAGUAUAUUGAUUAGUUUUGGAGUACUCGUGGUCG
Summary of the method: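 The eight P1ex-region nucleotides of an intron in the knt kanamycin-resistance gene on pET-22b(+) were all randomised and the library put into E. coli BL21(DE3). Six replicate transformations were grown overnight at 37°C or 30°C on LB agar with or without 25 μg/mL kanamycin, together with 100 μg/mL carbenicillin, 50 μM IPTG and 0.2% rhamnose. Colonies were pooled and amplicon-sequenced on an Illumina HiSeq 2500. Fitness from DiMSum is the error-weighted combination of wild-type-normalised replicate fold changes, kanamycin over none.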

| Sequence | self-splicing fitness (ln) (30 °C) | self-splicing fitness (ln) (37 °C) |
| --- | --- | --- |
| AUCGAGCAAUAUUACGUCUA | -3.26 ± 0.32 | -0.994 ± 0.13 |
| AUCGAGCAAUAUUACGUGAU | – | -1.87 ± 0.43 |
| AUCGAGCAAUAUUACGUGCG | -4 ± 0.29 | -1.73 ± 0.13 |
| AUCUAGCAAUAUUACGAAGU | -0.522 ± 0.24 | -0.543 ± 0.31 |
| AUCUAGCAAUAUUACGACCG | -0.961 ± 0.39 | -0.253 ± 0.33 |
| AUCUAGCAAUAUUACGCAUA | -2.4 ± 0.18 | -1.69 ± 0.15 |
| AUCUAGCAAUAUUACGCAUU | -1.48 ± 0.1 | -0.414 ± 0.1 |
| AUCUAGCAAUAUUACGCCUC | -1.62 ± 0.19 | -1.33 ± 0.34 |
| AUCUAGCAAUAUUACGCUCU | -0.469 ± 0.11 | -0.244 ± 0.12 |
| AUCUAGCAAUAUUACGGACA | -0.495 ± 0.14 | 0.224 ± 0.13 |
| AUCUAGCAAUAUUACGGAGA | -2.16 ± 0.2 | -1.32 ± 0.16 |
| AUCUAGCAAUAUUACGGAUU | -4.46 ± 0.32 | -2.38 ± 0.23 |
| AUCUAGCAAUAUUACGGCGC | -0.932 ± 0.11 | -0.0721 ± 0.14 |
| AUCUAGCAAUAUUACGGCUG | -1.21 ± 0.14 | 0.594 ± 0.18 |
| AUCUAGCAAUAUUACGGUCG | -2.96 ± 0.22 | 0.125 ± 0.18 |
| AUCUAGCAAUAUUACGGUGG | -4.43 ± 0.46 | -2.53 ± 0.19 |
| AUCUAGCAAUAUUACGGUGU | -2.17 ± 0.076 | -0.462 ± 0.081 |
| AUCUAGCAAUAUUACGUAAG | -2.37 ± 0.12 | -1.16 ± 0.15 |
| AUCUAGCAAUAUUACGUAGU | -1.83 ± 0.096 | -0.758 ± 0.11 |
| AUCUAGCAAUAUUACGUCCG | -1.67 ± 0.2 | -1.42 ± 0.28 |
| AUCUAGCAAUAUUACGUCGG | -3.23 ± 0.2 | -2.72 ± 0.27 |
| AUCUAGCAAUAUUACGUCUG | -1.72 ± 0.14 | -0.625 ± 0.14 |
| AUGAAGCAAUAUUACGAAAA | -2.58 ± 0.17 | -0.92 ± 0.15 |
| AUGAAGCAAUAUUACGAAUA | -1.17 ± 0.11 | -0.537 ± 0.17 |
| AUGAAGCAAUAUUACGACUC | 0.055 ± 0.11 | 0.123 ± 0.13 |

| Sequence | self-splicing fitness (ln) (30 °C) | self-splicing fitness (ln) (37 °C) |
| --- | --- | --- |
| AUGAAGCAAUAUUACGACUG | -0.375 ± 0.097 | -0.617 ± 0.11 |
| AUGAAGCAAUAUUACGAUGG | -3.18 ± 0.18 | -1.92 ± 0.16 |
| AUGAAGCAAUAUUACGCAAU | -1.03 ± 0.11 | -0.743 ± 0.12 |
| AUGAAGCAAUAUUACGCCCA | 0.226 ± 0.22 | 0.0745 ± 0.25 |
| AUGAAGCAAUAUUACGCCUC | -0.0224 ± 0.2 | -1.19 ± 0.33 |
| AUGAAGCAAUAUUACGCGGC | -2.46 ± 0.31 | -2.26 ± 0.29 |
| AUGAAGCAAUAUUACGCUAU | -1.47 ± 0.091 | -1.21 ± 0.12 |
| AUGAAGCAAUAUUACGGACG | -0.554 ± 0.066 | 0.536 ± 0.091 |
| AUGAAGCAAUAUUACGGAGC | -3.69 ± 0.39 | -1.72 ± 0.2 |
| AUGAAGCAAUAUUACGGAUA | -0.747 ± 0.088 | -0.113 ± 0.11 |
| AUGAAGCAAUAUUACGGCGU | 0.47 ± 0.064 | 0.205 ± 0.078 |
| AUGAAGCAAUAUUACGGCUU | -4.22 ± 0.24 | -3.03 ± 0.21 |
| AUGAAGCAAUAUUACGGGCC | -1.73 ± 0.29 | -0.73 ± 0.22 |
| AUGAAGCAAUAUUACGGUAC | -1.71 ± 0.14 | -0.139 ± 0.13 |
| AUGAAGCAAUAUUACGGUGA | -0.607 ± 0.069 | 0.195 ± 0.096 |
| AUGAAGCAAUAUUACGGUGU | -1.33 ± 0.062 | -0.601 ± 0.078 |
| AUGAAGCAAUAUUACGGUUC | -1.29 ± 0.099 | -1.8 ± 0.15 |
| AUGAAGCAAUAUUACGUCCA | -0.138 ± 0.075 | 0.611 ± 0.11 |
| AUGAAGCAAUAUUACGUGGC | -3.92 ± 0.25 | -2.56 ± 0.31 |
| AUGAAGCAAUAUUACGUGUC | -2.97 ± 0.28 | -2.26 ± 0.34 |
| AUGAAGCAAUAUUACGUUUA | -0.538 ± 0.061 | -0.537 ± 0.079 |
| AUGCAGCAAUAUUACGAAGC | -3.21 ± 0.19 | -0.72 ± 0.21 |
| AUGCAGCAAUAUUACGACCC | -0.995 ± 0.2 | -0.303 ± 0.31 |
| AUGCAGCAAUAUUACGACUC | -0.57 ± 0.11 | 0.501 ± 0.11 |
| AUGCAGCAAUAUUACGACUG | -3.44 ± 0.23 | -2.8 ± 0.31 |

| Sequence | self-splicing fitness (ln) (30 °C) | self-splicing fitness (ln) (37 °C) |
| --- | --- | --- |
| AUGCAGCAAUAUUACGAGAA | -3.47 ± 0.32 | -2.64 ± 0.34 |
| AUGCAGCAAUAUUACGCCAC | -2.31 ± 0.47 | -2.1 ± 0.36 |
| AUGCAGCAAUAUUACGCGCA | -1.91 ± 0.14 | -1.39 ± 0.099 |
| AUGCAGCAAUAUUACGCGCU | -1.37 ± 0.097 | -1.22 ± 0.12 |
| AUGCAGCAAUAUUACGCUCA | -0.858 ± 0.061 | -0.215 ± 0.075 |
| AUGCAGCAAUAUUACGCUCG | -1.89 ± 0.11 | -0.774 ± 0.13 |
| AUGCAGCAAUAUUACGGAAC | – | -2.76 ± 0.36 |
| AUGCAGCAAUAUUACGGAAG | -3.07 ± 0.16 | -2.01 ± 0.2 |
| AUGCAGCAAUAUUACGGAGU | -1.78 ± 0.093 | -1.44 ± 0.11 |
| AUGCAGCAAUAUUACGGCCC | -0.0496 ± 0.14 | 0.777 ± 0.19 |
| AUGCAGCAAUAUUACGGCCG | -1.62 ± 0.27 | -1.05 ± 0.3 |
| AUGCAGCAAUAUUACGGCGU | -4.06 ± 0.24 | -1.76 ± 0.2 |
| AUGCAGCAAUAUUACGGCUG | -2.78 ± 0.15 | -1.68 ± 0.23 |
| AUGCAGCAAUAUUACGGGUA | -1.56 ± 0.13 | -1.12 ± 0.14 |
| AUGCAGCAAUAUUACGUAAC | -2.78 ± 0.2 | -0.366 ± 0.15 |
| AUGCAGCAAUAUUACGUCAG | -2.17 ± 0.092 | -1.12 ± 0.11 |
| AUGCAGCAAUAUUACGUUCU | -0.207 ± 0.058 | 0.262 ± 0.079 |
| AUGGAGCAAUAUUACGAACA | -1.55 ± 0.38 | – |
| AUGGAGCAAUAUUACGACGA | – | 0.0911 ± 0.24 |
| AUGGAGCAAUAUUACGAUCU | – | -0.713 ± 0.31 |
| AUGGAGCAAUAUUACGCAAA | -2.21 ± 0.36 | – |
| AUGGAGCAAUAUUACGCAAU | -1.33 ± 0.19 | -1.44 ± 0.24 |
| AUGGAGCAAUAUUACGCAGA | -2.19 ± 0.32 | – |
| AUGGAGCAAUAUUACGCAGG | -3.69 ± 0.26 | -2.89 ± 0.4 |
| AUGGAGCAAUAUUACGCCCA | -1.95 ± 0.27 | -1.03 ± 0.26 |

| Sequence | self-splicing fitness (ln) (30 °C) | self-splicing fitness (ln) (37 °C) |
| --- | --- | --- |
| AUGGAGCAAUAUUACGCGAG | -2.22 ± 0.3 | – |
| AUGGAGCAAUAUUACGGCGG | -3.85 ± 0.37 | -1.82 ± 0.34 |
| AUGGAGCAAUAUUACGGUUA | – | -2.16 ± 0.34 |
| AUGGAGCAAUAUUACGGUUC | -3.93 ± 0.42 | -2.56 ± 0.38 |
| AUGGAGCAAUAUUACGUAAG | -2.69 ± 0.2 | -0.735 ± 0.17 |
| AUGGAGCAAUAUUACGUAUU | -3.29 ± 0.24 | -2.21 ± 0.16 |
| AUGGAGCAAUAUUACGUCAG | -2.47 ± 0.32 | -1.41 ± 0.44 |
| AUGGAGCAAUAUUACGUUCU | -2.64 ± 0.22 | -3.2 ± 0.4 |
| AUGGAGCAAUAUUACGUUUG | -3.38 ± 0.29 | -2.58 ± 0.36 |
| AUGUAGCAAUAUUACGAAAU | -1.92 ± 0.086 | -0.989 ± 0.11 |
| AUGUAGCAAUAUUACGAAUG | -2.89 ± 0.28 | -2.37 ± 0.29 |
| AUGUAGCAAUAUUACGACCA | -0.549 ± 0.17 | -0.552 ± 0.17 |
| AUGUAGCAAUAUUACGACCC | -0.73 ± 0.26 | -0.517 ± 0.3 |
| AUGUAGCAAUAUUACGACGU | -0.432 ± 0.087 | 0.442 ± 0.095 |
| AUGUAGCAAUAUUACGAGAA | -2.68 ± 0.39 | -1.01 ± 0.22 |
| AUGUAGCAAUAUUACGAUCC | -0.944 ± 0.14 | -0.204 ± 0.15 |
| AUGUAGCAAUAUUACGAUCU | -0.222 ± 0.056 | 0.524 ± 0.073 |
| AUGUAGCAAUAUUACGCACA | -0.084 ± 0.13 | 0.428 ± 0.17 |
| AUGUAGCAAUAUUACGCAGA | -2.74 ± 0.36 | 0.109 ± 0.18 |
| AUGUAGCAAUAUUACGCAUC | -3.66 ± 0.27 | -2.51 ± 0.45 |
| AUGUAGCAAUAUUACGCCAC | -3.49 ± 0.36 | – |
| AUGUAGCAAUAUUACGCGAG | -1.71 ± 0.13 | -0.706 ± 0.13 |
| AUGUAGCAAUAUUACGCGGA | -2.41 ± 0.3 | -1.09 ± 0.2 |
